The values that follow come from paper PMC2856799.

Test [1] addresses Insulin (Pekar and Frank 1972 preparation). Briefly: Sedimentation equilibrium. The note with it: pH 7.0; 24.5 °C; ionic strength 0.1; not stated (pH 7.0); scale: log10; cited from earlier work.
The target in a further test is Insulin (zinc-free) (UniProt P01317). Briefly: Composition-gradient static light scattering. Conditions: pH 10.0, 25 °C, 0.095 M NaCl, 5.3 mM glycine, 3.2 mM NaOH, scale: log10.
Sequence of UniProt P01317 (P01317 whole entry): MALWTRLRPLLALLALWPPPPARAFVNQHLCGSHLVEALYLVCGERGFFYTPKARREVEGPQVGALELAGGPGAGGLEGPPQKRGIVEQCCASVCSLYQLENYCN

For “Insulin (Pekar and Frank 1972 preparation)”, in test [1], the log10(K6a) (stepwise hexamer addition) was 3.69, the log10(K12) (monomer-dimer) is 5.64, the log10(K26) (3 dimers -> hexamer) is 8.36 and the log10(Ka) (isodesmic) is 4.43.

In the case of Insulin (zinc-free), the log10(Ka) (enhanced isodesmic; monomer addition to dimer and higher oligomers) with Insulin (zinc-free) was found to be 3.82.
